According to patent publication US20230115257A1 (published 2023):

Assays:
Assay in all cases: ELISA
[1] = target: T1, SARS-CoV-2 P.1 spike protein (SARS-CoV-2 P.1 (Gamma), UniProt P0DTC2 13-1213)
[2] = target: SARS-CoV-2 B.1.1.7 spike protein (SARS-CoV-2 B.1.1.7 (Alpha), UniProt P0DTC2 13-1213)
[3] = target: T1, SARS-CoV-2 P.1 spike protein; remark: listed apart in the source

Binder | IC50 [1] [nM] | IC50 [2] [nM] | EC50 [3] [nM]
6-O12-A (antibody, V domains shown) VH: QVQLQQPGTELVKPGASVKLSCKASGYTFTSYWMHWVKQRPGQGLEWIGNINPSNGGTNYNEKFRSKATLTVDKSSSTAYMQLSSLTSEDSAVYYCARLGWFLPLGSWGQGTTLTVSS VL: QIVLTQSPAIMSASLGEVITLTCSASSSVSYMHWYQQKSGTSPKLLIYSTSNLASGVPSRFSGSGSGTFYSLTISSVEAEDAADYYCHQWSGYMYTFGGGTKLEIK | 8.01 | 7.05 | –
4-N22-A (antibody, V domains shown) VH: QVQLQQPGTELVKPGASVKLSCKASGYTFTNYWMYWVKQRPGQGLDWIGNINPSNGGTNYNEKFKSKATLTVDKSSSTAYMQLSSLTSEDSAVYYCARETGNYWGQGTTLTVSS VL: DILMTQSPSSMSVSLGDTVSISCHASQGISSNIGWLQQKPGKSFKGLIYHGTNLEDGVPSRFSGSGSGADYSLTISSLESEDFADYYCVQYAQFPYTFGGGTKLEIK | 17.2 | 1.51 | –
4-M3-A (antibody, V domains shown) VH: EVQLQQSGPELVKPGDSVKISCKASGYSFTGYFMNWVMQSHGKSLEWIGRINPNNGETFYNQKFKGKATLTVDKSSDTAHMELRSLTSEDSAVYYCARGGTGTGWGQGTTLTVSS VL: DILMTQSPSSMSVSLGDTVSITCHASQGISSNIGWLQQKPGKSFKGLIYYGTNLEDGVPSRFSGSGSGADYSLTISSLESEDLADYYCIQYAQFPYTFGGGTKLEIK | 13.5 | 4.98 | –
4-L4-A (antibody, V domains shown) VH: QAYLQQSGAELVRPGASVKMSCKASGYTFTSYTVHWVKQTPRQGLEWIGGIYPGNVDTSYNQNFKGKATLTVDKSSSTAYMQLSSLTSEDSAVYFCARDGYYAMDYWGQGTSVTVSS VL: not shown | 28.2 | 31.6 | –
1-L10-A (antibody, V domains shown) VH: EVKLEESGGGLVQPGGSMKLSCVASGFTFNNYWMNWVRQSPEKGLEWVAQMRLKSDNYATHYAESVKGRFTISRDDSKSSVYLQMNNLRAEDTGIYYCIEGYWTYWGQGTLVTVSA VL: QIVLTQSPAIMSASLGERVTMTCTASSSVSSSYLHWYQQKPGSSPKLWIYSTSNLASGVPARFSGNGSGTSYSLTISSMEAEDAATYYCLQYHRSPPYTFGGGTKLEIK | 11.5 | 7.82 | –
6-C19-A (antibody, V domains shown) VH: QIQLVQSGPELKKPGETVKISCKASGNTFTTAGMQWVQKMPGKGFKWIGWINTHSGEPKYAEDFKGRFAFSLETSASTAYLQISNLKNEDTATYFCARYGDYYYFDCWGQGTTLTVSS VL: DIQMTQSPASLSASVGETVTITCRASGNIHNYLAWYQQKQGKSPQLLVYNAKTLADGVPSRFSGSGSGTQYSLKINSLQPEDFGSFYCQHFWTTPWSFGGGTKLEIK | – | – | 0.62
8-H5-A (antibody, V domains shown) VH: QVTLKESGPGILQSSQTLSLTCSLSGFSLSTSGMGVSWVRQPSGKGLEWLAHIYWDDDKRYTPSLKSRLTISTDSSRKQVFLKITSVDTADTATYYCARRDLHDYDGWFAYWGQGTLVTVSA VL: DIVMTQSQKFMSTAVGDRVSVTCKASQNVGTNVAWYQQKPGQSPKALIYSASFRYSGVPDRFSGSGSGTDFTLTISNVQSEDLAEYFCQQYNSYPLTFGSGTKLEIK | 30.5 | 15.4 | –
10-J24-A (antibody, V domains shown) VH: EVQLVESGGGLVKPGGSLKLSCAASGFTFSSYAMSWVRQNPAKRLEWVATISGGGGFTYYPDSVKGRFTISRDNAKNTLYLQMNSLRSEDTAMYYCARDEDGKHDYFDYWGQGTTLTVSS VL: DIVMTQSHKFMSTSVGDRVSITCKASQDVGTAVAWYQQKPGQSPKLLIYWASTRHTGVPDRFTGSGSGTDFTLTISNVQSEDLADYFCQQYASYPLTFGGGTKLVIK | – | – | 16.1
4-C22-A (antibody, V domains shown) VH: EVQLVESGGDLVKPGGSLKLSCAASGFTFSSFGMSWVRQTPDKRLEWVATISSGGGFTYYPDSVEGRFTISRDNAKNTLYLQMSSLKSEDTAMYYCARRLYDYDWFAYWGQGTLVTVSA VL: DIVMTQSHKIMSTSVGDRVSITCKASQDVVTAVAWYQKKPGQSPKLLIHWASTRHTGVPDRFTGSGSGTDFTLTISNVQSEDLADYFCQQYSSYPLTFGAGTKLELK | – | – | 1.44
2-H7-A (antibody, V domains shown) VH: QAYLQQSGAELVRPGASVKMSCKASGYTFTGYTMHWVKQTPRQGLEWIGAIYPENGDTSYNQKFKGKATLTVDKSSSTAYMQLSSLTSEDSAVYFCARDGYDVLYGMDYWGQGTSVTVSS VL: DIVLTQSPASLAVSLGQRATISCRASKSVSTSGYSYMHWYQQKPGQPPKLLIYLASNLESGVPARFSGSGSGTDFTLNIHPVEEEDAATYYCQHSRELPWTFGGGTKLDIK | 35.6 | 9.88 | –
2-G20-A (antibody, V domains shown) VH: EVQLQQSGPELVKPGASVKMSCKASGYTFPSYVLHWVKQKPGQGLEWIGYIYPYNDGTNYNEKFKGKATLTSDKSSSTAYMELSSLTSEDSAVYYCARGDYGDSAWFPYWGQGTLVTVSA VL: DIVLTQSPASLAVSLGQRATISCRASKSVSTSGYSYMHWYQQKPGQPPKLLIYLASNLKSGVPARFSGGGSGTDFTLNIHPVEEEDAATYYCQLSRELPWTFGGGTKLEIK | 18.9 | 19.2 | –
2-O12-A (antibody, V domains shown) VH: EVQLQQSGPELVKPGASVKISCKASGYTFTDYYMNWVKQSHGKSLEWIGDINSNNGGTTYDQKFKGKATLTVDRSSSTAYMELRSLTSEDSAVYYCARRGDGHFGGFTYWGQGTLVTVSA VL: not shown | – | 87.6 | –
9-L13-A (antibody, V domains shown) VH: QVQLKESGPGLVAPSQSLSITCTVSGFSLTSYAISWVRQPPGKGLEWLGLIWTGGGTNYNSALKSRLSISKDNSKSQIFLKMNSLQTDDTARYYCARGPPLIYYGDLYYFDYWGQGTTLTVSS VL: DIQMTQSPSSLSASLGGKVTITCKASQDINKYIAWYQHKPGKGPRLLIHYTSTLQPGIPSRFSGSGSGRDYSFSISNLEPEDIATYYCLQYDNLWTFGGGTKLEIK | – | 65.3 | –
